Reference: the nanobody polyreactivity screen of Harvey et al. (2022)

Assay: yeast display, Sf9 membrane polyspecificity reagent, FACS + sequencing; frameworks hold sequencing errors
Method in brief: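 In a synthetic yeast display library (Saccharomyces cerevisiae BJ5465), nanobody expression was induced with galactose for 36–48 hours. FACS gates were set low and high (top ~1%) using anti-HA fluorescence for expression and streptavidin fluorescence for binding of the Sf9 membrane reagent. Each polyreactivity label is drawn from the gate of origin.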

Row | Sequence | polyreactivity (PSR sort gate)
1 | QVQLVESGGGLVQAGGSLRLSCDASGSIFQAYAIGWYRQAPGKEREFVAVITWGGGSTSYADSVKGRFTISRDNAKNTVYLQMNSLKPEDTAVYYCNADSQEWIWLYEGYDYWGQGTQVTVSS | low polyreactivity
2 | QVQLVESGGGLVQAGGSLRLSCDASGSIFSTYVMGWYRQAPGKERELVAAITVSVGSTYYADSVKGRFTISRDNAKNTVYLQMNSLKPEDTAVYYCAAGSYSRYLYSLYFDFDYWGQGTQVTVSS | low polyreactivity
3 | QVQLVESGGGLVQAGGSLRLSCDASGSIFYIYAMGWSRQAPGKERELVATISGSGGSTHYADSVKGRFTISRDNAKNTVYLQMNSLKPEDTAVYYCDADVLPYGYYWGQGTQVTVSS | low polyreactivity
4 | QVQLVESGGGLVQAGGSLRLSCDASGSIFYRNVMGWYRQAPGKERELVAAISGRGGSTYYADSVKGRFTISRDNAKNTVYLQMNSLKPEDTAVYYCAADKGYRYISYYYWGQGTQVTVSS | high polyreactivity
5 | QVQLVESGGGLVQAGGSLRLSCDASGSIIIGNSMGWYRQAPGKERELVAVINGSDGTTYYADSVKGRFTISRDNAKNTVYLQMNSLKPEDTAVYYCNADFIDPSVYDYNYWGQGTQVTVSS | low polyreactivity
6 | QVQLVESGGGLVQAGGSLRLSCDASGSILRYYAMGWYRQAPGKERELVADISTSGGSTYYADSVKGRFTISRDNAKNTVYLQMNSLKPEDTAVYYCAKPWYSSGFDYWGQGTQVTVSS | high polyreactivity
7 | QVQLVESGGGLVQAGGSLRLSCDASGSTFAPNTMGWYRQAPGKVREFVADISFSGGSTYYADSVKGRFSISRDNAKNTVYLQMTSRKPEDTAVYYCNAYYSYWFTQYDYWGQGTQVTVSS | high polyreactivity
8 | QVQLVESGGGLVQAGGSLRLSCDASGSTFDSYAMGWYRQAPGKERELVAAINQGGGSTYYADSVKGRFTISRDNAKNTVYLQMNSLKPEDTAVYYCGADRSGSFYKLDYWGQGTQVTVSS | low polyreactivity
9 | QVQLVESGGGLVQAGGSLRLSCDASGSTFGRNAMGCYRQAPGKESELVAAITASGGRTYYADSVKGRFTISRDNAKNTVYLQMNSLKPEDTAVYYCAAASRVGFLYYYWGQGTQVTLSS | low polyreactivity
10 | QVQLVESGGGLVQAGGSLRLSCDASGSTFKNYAMGWYRQAPGKERELVAGINWYGGRTYYADSVKGRFTISRDNAKNTVFLQMNSLKPEDTAVYYCAAALPGYGDYYYWGQGTQVTVSS | high polyreactivity
11 | QVQLVESGGGLVQAGGSLRLSCDASGSTFRANAMGWYRQAPGKECELVAAISQSGGITYYADSVKGRFTISRDNAKNTVYLQMNCLKPEDTAVYYCAAKGSYSYDVGGPVYQRTYGYWGQGTQVTVSS | high polyreactivity
12 | QVQLVESGGGLVQAGGSLRLSCDASGSTFRHYAMGWYRQAPGKERELVAAISSTGGSTYYADSVKGRFTISRDNAKNTVYLQMNSLKPEDTAVSYCAARRLYWGQGTQVTVSS | high polyreactivity
13 | QVQLVESGGGLVQAGGSLRLSCDASGSTFTRYVMGGYRQPPGKERELVAVISSSAGSTYYADSVKGRFTISRDNAKNTVYLQMNSLKPEDTAVYYCAARYSAKHYGYGYWGQGTQVTVSS | high polyreactivity
14 | QVQLVESGGGLVQAGGSLRLSCDASGTFYGKTMGWYRQAPGKERELVAVISIDGSTNYADSVKGRFTISRDNAKNTVYLQMNSLKPEDTAVYYCNARNQWRTVGKYDYWGQGTQVTVSS | low polyreactivity
15 | QVQLVESGGGLVQAGGSLRLSCDPSGSIFYRNAMVWYRPAPGKERELVATITVNGGRTYYADSVKGRFTISRDNAKNTVYLQMNSLKPEDTAVYYCAKDVHRWYPYDYWGQGTQVTVSS | low polyreactivity
16 | QVQLVESGGGLVQAGGSLRLSCDPSGYTLVDYAMGWYRQAPGKESELVAGISSGDSTYYADSVKGRFTISRDNAKNTVYLQMNSLKPEDTAVYYCNAGLKTIFLLYRWTLFDYWGQGTQVTVSS | high polyreactivity
17 | QVQLVESGGGLVQAGGSLRLSCDSSGSIFGYYAMGWYRQAPGKERELVAAITSGGNTYYADSVKGRFTISRDNAKNTVYLQMNSLKPEDTAVYYCNAVWRTRDYDYWGQGTQVTVSS | low polyreactivity
